Experimental data: patent publication US20220175946A1 (MAGENTA THERAPEUTICS, published 2022)
Where a chain is given by its changes, count along the chain named.

B1: Antibody 56 (Ab56) (antibody, V domains shown)
VH: QVQLVQSGAEVKKPGSSVKVSCKASGGTFSLYAISWVRQAPGQGLEWMGGIIPAFGTANYAQKFQGRVTITADESTSTAYMELSSLRSEDTAVYYCARGGLDTDEFDLWGRGTLVTVSS
VL: DIQMTQSPSSLSASVGDRVTITCRASQSINSYLNWYQQKPGKAPKLLIYAASSLQSGVPSRFSGSGSGTDFTLTISSLQPEDFATYYCQQGVSDITFGGGTKVEIKR
B2: Antibody 57 (Ab57) (antibody, V domains shown)
VH: B1 VH with A54H, T57L
VL: B1 VL
B3: Antibody 54 (Ab54) (antibody, V domains shown)
VH: B1 VH with L31S, A54I
VL: B1 VL
B4: Antibody 55 (Ab55) (antibody, V domains shown)
VH: B1 VH with S30R, L31I, A54D, T57V
VL: B1 VL
B5: Antibody 58 (Ab58) (antibody, V domains shown)
VH: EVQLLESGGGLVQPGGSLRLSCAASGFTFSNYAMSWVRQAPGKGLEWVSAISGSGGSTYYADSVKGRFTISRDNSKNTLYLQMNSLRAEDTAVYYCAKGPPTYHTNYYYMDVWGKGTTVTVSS
VL: DIQMTQSPSSVSASVGDRVTITCRASQGISSWLAWYQQKPGKAPKLLIYAASSLQSGVPSRFSGSGSGTDFTLTISSLQPEDFATYYCQQTNSFPYTFGGGTKVEIKR
B6: Antibody 61 (Ab61) (antibody, V domains shown)
VH: EVQLLESGGGLVQPGGSLRLSCAASGFTFSSYVMIWVRQAPGKGLEWVSSISGDSVTTYYADSVKGRFTISRDNSKNTLYLQMNSLRAEDTAVYYCAKGPPTYHTNYYYMDVWGKGTTVTVSS
VL: B5 VL
B7: Antibody 67 (Ab67) (antibody, V domains shown)
VH: EVQLVESGGGLVQPGGSLRLSCAASGFTFSDADMDWVRQAPGKGLEWVGRTRNKAGSYTTEYAASVKGRFTISRDDSKNSLYLQMNSLKTEDTAVYYCAREPKYWIDFDLWGRGTLVTVSS
VL: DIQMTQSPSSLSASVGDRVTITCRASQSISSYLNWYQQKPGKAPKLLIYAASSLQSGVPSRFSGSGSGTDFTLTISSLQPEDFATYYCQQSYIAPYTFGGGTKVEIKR
B8: Antibody 66 (Ab66) (antibody, V domains shown)
VH: B7 VH with A32H, D33Y, G56S
VL: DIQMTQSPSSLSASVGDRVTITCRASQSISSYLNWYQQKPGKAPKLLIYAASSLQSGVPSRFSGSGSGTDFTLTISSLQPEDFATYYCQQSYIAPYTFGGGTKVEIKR
B9: Antibody 69 (Ab69) (antibody, V domains shown)
VH: B7 VH with S30V, A32H, A55L
VL: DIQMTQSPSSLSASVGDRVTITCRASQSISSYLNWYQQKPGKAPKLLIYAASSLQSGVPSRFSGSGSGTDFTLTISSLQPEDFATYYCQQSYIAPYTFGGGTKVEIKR
B10: Antibody 68 (Ab68) (antibody, V domains shown)
VH: B7 VH with G16R, A23T, A32H, D35N, K54A
VL: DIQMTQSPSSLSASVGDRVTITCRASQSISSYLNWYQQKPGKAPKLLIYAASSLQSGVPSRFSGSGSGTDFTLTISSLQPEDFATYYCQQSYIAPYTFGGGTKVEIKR
B11: CK6 (antibody, V domains shown)
VH: QVQLVQSGAAVKKPGESLKISCKGSGYRFTSYWIGWVRQMPGKGLEWMGIIYPGDSDTRYSPSFQGQVTISAGKSISTAYLQWSSLKASDTAMYYCARHGRGYNGYEGAFDIWGQGTMVTVSS
VL: AIQLTQSPSSLSASVGDRVTITCRASQGISSALAWYQQKPGKAPKLLIYDASSLESGVPSRFSGSGSGTDFTLTISSLQPEDFATYYCQQFNSYPLTFGGGTKVEIK

Target: Human CD117 as expressed on cells (Kasumi-1 cells; primary human CD34+ bone marrow cells) (human, UniProt P10721 26-976)
Assay: cell-based or functional assay

Human CD117 as expressed on cells (Kasumi-1 cells; primary human CD34+ bone marrow cells), sequence (P10721 26-976 limits assumed): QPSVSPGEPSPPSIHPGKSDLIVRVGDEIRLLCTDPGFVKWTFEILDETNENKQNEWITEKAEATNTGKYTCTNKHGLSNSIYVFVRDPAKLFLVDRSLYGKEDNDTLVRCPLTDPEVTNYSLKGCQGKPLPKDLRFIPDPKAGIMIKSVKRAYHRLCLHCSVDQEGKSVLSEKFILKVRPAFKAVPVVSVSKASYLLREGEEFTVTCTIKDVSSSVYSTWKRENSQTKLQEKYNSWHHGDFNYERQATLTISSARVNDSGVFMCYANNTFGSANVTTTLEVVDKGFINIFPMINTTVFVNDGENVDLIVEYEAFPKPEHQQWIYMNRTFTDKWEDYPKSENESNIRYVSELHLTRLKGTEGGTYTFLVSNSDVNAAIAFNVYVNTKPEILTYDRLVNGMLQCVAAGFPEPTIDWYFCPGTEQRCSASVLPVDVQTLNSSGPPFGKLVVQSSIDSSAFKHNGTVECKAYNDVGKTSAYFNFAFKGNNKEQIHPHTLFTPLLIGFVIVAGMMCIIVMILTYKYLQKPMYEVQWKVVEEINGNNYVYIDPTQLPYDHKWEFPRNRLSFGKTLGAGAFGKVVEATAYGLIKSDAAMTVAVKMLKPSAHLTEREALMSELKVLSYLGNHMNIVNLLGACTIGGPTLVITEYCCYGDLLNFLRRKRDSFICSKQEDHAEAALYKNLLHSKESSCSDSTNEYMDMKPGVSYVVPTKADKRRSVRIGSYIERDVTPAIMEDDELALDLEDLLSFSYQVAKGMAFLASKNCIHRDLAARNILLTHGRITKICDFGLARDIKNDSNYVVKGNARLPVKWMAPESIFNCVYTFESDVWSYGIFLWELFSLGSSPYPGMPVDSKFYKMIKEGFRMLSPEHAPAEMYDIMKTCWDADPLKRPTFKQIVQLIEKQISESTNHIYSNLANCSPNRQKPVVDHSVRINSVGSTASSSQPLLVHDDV

Going from B1 to B2, the “AUC Kasumi-1 Killing (AUC hIgG1 - AUC MAC ID#)” value (shortened to “AUC Kasumi-1 Killing”) falls from 193000 to 157000.

Going from B3 to B4, the “AUC Kasumi-1 Killing” value rises from 155000 to 226000.

Going from B5 to B6, the “AUC Kasumi-1 Killing” value falls from 97400 to 78600.

First: B7
Second: B8
The “AUC Kasumi-1 Killing” value of the first is higher: 156000 for the first, 135000 for the second.

Going from B9 to B10, the “AUC Kasumi-1 Killing” value falls from 40000 to 14400.

In the case of B11, the “AUC Kasumi-1 Killing” value is reported as 132000.
